Data set [1] has as its system B2 (FHV B2 1-73) (Flock House Virus). Kind of data set: BLI. To be noted: BLI (Octet RED384): 10 mM Tris pH 8.0, 100 mM NaCl, 0.1 mg/mL yeast tRNA, 0.1 mM EDTA, 0.05% Tween-20, temperature not stated. In general terms: Biolayer interferometry detects binding as a change in optical thickness at a sensor tip.
The next data set concerns J2 anti-dsRNA antibody. Put plainly: BLI. To be noted: kinetic, BLI (Octet RED384): 10 mM Tris pH 8.0, 100 mM NaCl, 0.1 mg/mL yeast tRNA, 0.1 mM EDTA, 0.05% Tween-20, temperature not stated.
The test system of the next data set is K1 anti-dsRNA antibody. Kind of data set: BLI. To be noted: BLI (Octet RED384): 10 mM Tris pH 8.0, 100 mM NaCl, 0.1 mg/mL yeast tRNA, 0.1 mM EDTA, 0.05% Tween-20, temperature not stated.
Another data set has as its target B2-Biotin (B2-Avi) (Flock House Virus, UniProt P68831 1-73). Put plainly: BLI; avidity surface; lower asymptote than long dsRNA; BLI (Octet RED384): 10 mM Tris pH 8.0, 100 mM NaCl, 0.1 mg/mL yeast tRNA, 0.1 mM EDTA, 0.05% Tween-20; temperature not stated. To be noted: protein: recombinant; tags: N-terminal 6xHis; C-terminal GS linker-AviTag, biotinylated by BirA in vivo; chain copies: 2; blunt.

Where [2] appears, read: U replaced by N1-methylpseudouridine.

The record followed here is PMC11435032, “Development of Biolayer Interferometry (BLI)-Based Double-Stranded RNA Detection Method with Application in mRNA-Based Therapeutics and Vaccines”.

Chain of B2-Biotin (B2-Avi) (P68831 1-73): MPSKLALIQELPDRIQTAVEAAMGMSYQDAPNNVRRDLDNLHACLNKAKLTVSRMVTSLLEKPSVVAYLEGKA

By Kd is commonly meant the equilibrium constant for the complex coming apart. The low end stands for a tighter complex, the high end for a looser complex. On to 700 bp-m1ψ, for which the dissociation constant (Kd) in data set [1] (setting [2]) came to 669 nM; in the data set on J2 anti-dsRNA antibody (setting [2]), 56 nM.
700 bp-5 moU: the Kd in data set [1] (U replaced by 5-methoxyuridine) is 948 nM; in the data set on J2 anti-dsRNA antibody (U replaced by 5-methoxyuridine), 131 nM. Further, the binding signal (fold weaker than 700 bp-U) in the data set with K1 anti-dsRNA antibody (Kd value missing in material, U replaced by 5-methoxyuridine) is 4.
Turning to 700 bp-ψ, the figures for the dissociation constant (Kd) (in data set [1] (U replaced by pseudouridine); in the data set with J2 anti-dsRNA antibody (U replaced by pseudouridine)) were 405 nM and 32 nM, respectively.
As to 700 bp-U, the values for the Kd (in data set [1]; with J2 anti-dsRNA antibody; in the data set on K1 anti-dsRNA antibody) were 62 nM, 27 nM and 325 nM, respectively.

B1: 25 bp-m1ψ dsRNA (dsRNA)
RNA 1: CACGUACCGUUCUAGCGGGCUCUCG
RNA 2: CGAGAGCCCGCUAGAACGGUACGUG
modifications: U replaced by N1-methylpseudouridine
On to B1, for which the binding result with B2-Biotin (B2-Avi) is “binds”.

B2: 25 bp-U dsRNA (dsRNA)
RNA 1: CACGUACCGUUCUAGCGGGCUCUCG
RNA 2: CGAGAGCCCGCUAGAACGGUACGUG
On to B2, for which the binding result with B2-Biotin (B2-Avi) is recorded as “binds”.
